Measured values from the Human Domainome abundance scans (Beltran et al. 2025).
± gives the uncertainty stated by the source.

B1: Double-stranded RNA-specific adenosine deaminase, residues 296 to 358; numbered along this chain, P55265 (parent)
chain: MAEIKEKICDYLFNVSDSSALNLAKNIGLTKARDINAVLIDMERQGDVYRQGTTPPIWHLTDK

Variants of: B1
Test: abundance fitness (aPCA) (normalised: wild type 0, dead -1); higher = more abundant; growth selection in yeast, the domain comes from the species named
Conditions: Homo sapiens

| Variant | abundance fitness |
| --- | --- |
| MAEIKEKICDYLFNVSDSSALQLAKNIGLTKARDINAVLIDMERQGDVYRQGTTPPIWHLTDK [N22Q] | 0.162 ± 0.099 |
| MAEIKEKICDYLFNVSDSSALRLAKNIGLTKARDINAVLIDMERQGDVYRQGTTPPIWHLTDK [N22R] | -0.682 ± 0.11 |
| MAEIKEKICDYLFNVSDSSALSLAKNIGLTKARDINAVLIDMERQGDVYRQGTTPPIWHLTDK [N22S] | -0.323 ± 0.066 |
| MAEIKEKICDYLFNVSDSSALTLAKNIGLTKARDINAVLIDMERQGDVYRQGTTPPIWHLTDK [N22T] | -0.141 ± 0.087 |
| MAEIKEKICDYLFNVSDSSALVLAKNIGLTKARDINAVLIDMERQGDVYRQGTTPPIWHLTDK [N22V] | -0.18 ± 0.078 |
| MAEIKEKICDYLFNVSDSSALWLAKNIGLTKARDINAVLIDMERQGDVYRQGTTPPIWHLTDK [N22W] | -0.609 ± 0.11 |
| MAEIKEKICDYLFNVSDSSALYLAKNIGLTKARDINAVLIDMERQGDVYRQGTTPPIWHLTDK [N22Y] | -0.386 ± 0.14 |
| MAEIKEKICDYLFNVSDSSALNAAKNIGLTKARDINAVLIDMERQGDVYRQGTTPPIWHLTDK [L23A] | -0.368 ± 0.064 |
| MAEIKEKICDYLFNVSDSSALNCAKNIGLTKARDINAVLIDMERQGDVYRQGTTPPIWHLTDK [L23C] | -0.474 ± 0.091 |
| MAEIKEKICDYLFNVSDSSALNDAKNIGLTKARDINAVLIDMERQGDVYRQGTTPPIWHLTDK [L23D] | -0.313 ± 0.11 |
| MAEIKEKICDYLFNVSDSSALNEAKNIGLTKARDINAVLIDMERQGDVYRQGTTPPIWHLTDK [L23E] | -0.329 ± 0.067 |
| MAEIKEKICDYLFNVSDSSALNFAKNIGLTKARDINAVLIDMERQGDVYRQGTTPPIWHLTDK [L23F] | -1.03 ± 0.16 |
| MAEIKEKICDYLFNVSDSSALNGAKNIGLTKARDINAVLIDMERQGDVYRQGTTPPIWHLTDK [L23G] | -0.403 ± 0.045 |
| MAEIKEKICDYLFNVSDSSALNHAKNIGLTKARDINAVLIDMERQGDVYRQGTTPPIWHLTDK [L23H] | -0.453 ± 0.1 |
| MAEIKEKICDYLFNVSDSSALNIAKNIGLTKARDINAVLIDMERQGDVYRQGTTPPIWHLTDK [L23I] | 0.372 ± 0.062 |
| MAEIKEKICDYLFNVSDSSALNKAKNIGLTKARDINAVLIDMERQGDVYRQGTTPPIWHLTDK [L23K] | -0.531 ± 0.14 |
| MAEIKEKICDYLFNVSDSSALNMAKNIGLTKARDINAVLIDMERQGDVYRQGTTPPIWHLTDK [L23M] | -0.374 ± 0.11 |
| MAEIKEKICDYLFNVSDSSALNPAKNIGLTKARDINAVLIDMERQGDVYRQGTTPPIWHLTDK [L23P] | -0.299 ± 0.061 |
| MAEIKEKICDYLFNVSDSSALNQAKNIGLTKARDINAVLIDMERQGDVYRQGTTPPIWHLTDK [L23Q] | -1.2 ± 0.35 |
| MAEIKEKICDYLFNVSDSSALNRAKNIGLTKARDINAVLIDMERQGDVYRQGTTPPIWHLTDK [L23R] | -0.592 ± 0.06 |
| MAEIKEKICDYLFNVSDSSALNSAKNIGLTKARDINAVLIDMERQGDVYRQGTTPPIWHLTDK [L23S] | -0.424 ± 0.077 |
| MAEIKEKICDYLFNVSDSSALNTAKNIGLTKARDINAVLIDMERQGDVYRQGTTPPIWHLTDK [L23T] | -0.421 ± 0.079 |

| Variant | abundance fitness |
| --- | --- |
| MAEIKEKICDYLFNVSDSSALNVAKNIGLTKARDINAVLIDMERQGDVYRQGTTPPIWHLTDK [L23V] | -0.316 ± 0.053 |
| MAEIKEKICDYLFNVSDSSALNWAKNIGLTKARDINAVLIDMERQGDVYRQGTTPPIWHLTDK [L23W] | -0.682 ± 0.094 |
| MAEIKEKICDYLFNVSDSSALNYAKNIGLTKARDINAVLIDMERQGDVYRQGTTPPIWHLTDK [L23Y] | -0.678 ± 0.12 |
| MAEIKEKICDYLFNVSDSSALNLCKNIGLTKARDINAVLIDMERQGDVYRQGTTPPIWHLTDK [A24C] | -0.179 ± 0.079 |
| MAEIKEKICDYLFNVSDSSALNLDKNIGLTKARDINAVLIDMERQGDVYRQGTTPPIWHLTDK [A24D] | -0.838 ± 0.13 |
| MAEIKEKICDYLFNVSDSSALNLEKNIGLTKARDINAVLIDMERQGDVYRQGTTPPIWHLTDK [A24E] | -0.447 ± 0.082 |
| MAEIKEKICDYLFNVSDSSALNLFKNIGLTKARDINAVLIDMERQGDVYRQGTTPPIWHLTDK [A24F] | -0.566 ± 0.086 |
| MAEIKEKICDYLFNVSDSSALNLGKNIGLTKARDINAVLIDMERQGDVYRQGTTPPIWHLTDK [A24G] | -0.495 ± 0.047 |
| MAEIKEKICDYLFNVSDSSALNLHKNIGLTKARDINAVLIDMERQGDVYRQGTTPPIWHLTDK [A24H] | -0.488 ± 0.092 |
| MAEIKEKICDYLFNVSDSSALNLIKNIGLTKARDINAVLIDMERQGDVYRQGTTPPIWHLTDK [A24I] | -0.552 ± 0.094 |
| MAEIKEKICDYLFNVSDSSALNLKKNIGLTKARDINAVLIDMERQGDVYRQGTTPPIWHLTDK [A24K] | -0.616 ± 0.14 |
| MAEIKEKICDYLFNVSDSSALNLLKNIGLTKARDINAVLIDMERQGDVYRQGTTPPIWHLTDK [A24L] | -0.513 ± 0.073 |
| MAEIKEKICDYLFNVSDSSALNLMKNIGLTKARDINAVLIDMERQGDVYRQGTTPPIWHLTDK [A24M] | -0.418 ± 0.088 |
| MAEIKEKICDYLFNVSDSSALNLNKNIGLTKARDINAVLIDMERQGDVYRQGTTPPIWHLTDK [A24N] | -0.722 ± 0.13 |
| MAEIKEKICDYLFNVSDSSALNLPKNIGLTKARDINAVLIDMERQGDVYRQGTTPPIWHLTDK [A24P] | -0.49 ± 0.098 |
| MAEIKEKICDYLFNVSDSSALNLQKNIGLTKARDINAVLIDMERQGDVYRQGTTPPIWHLTDK [A24Q] | -0.171 ± 0.1 |
| MAEIKEKICDYLFNVSDSSALNLRKNIGLTKARDINAVLIDMERQGDVYRQGTTPPIWHLTDK [A24R] | -0.544 ± 0.058 |
| MAEIKEKICDYLFNVSDSSALNLTKNIGLTKARDINAVLIDMERQGDVYRQGTTPPIWHLTDK [A24T] | -0.276 ± 0.077 |
| MAEIKEKICDYLFNVSDSSALNLVKNIGLTKARDINAVLIDMERQGDVYRQGTTPPIWHLTDK [A24V] | -0.58 ± 0.053 |
| MAEIKEKICDYLFNVSDSSALNLWKNIGLTKARDINAVLIDMERQGDVYRQGTTPPIWHLTDK [A24W] | -0.707 ± 0.088 |
| MAEIKEKICDYLFNVSDSSALNLYKNIGLTKARDINAVLIDMERQGDVYRQGTTPPIWHLTDK [A24Y] | -0.406 ± 0.1 |
